This assay has as its target recombinant SARS-CoV-2 RBD of original WT strain (SARS-CoV-2) (UniProt P0DTC2). Briefly: SPR. For orientation: In SPR one partner is held on a chip, and binding of the other changes the refractive index at the surface.

For the substance REGN-10933, the dissociation constant (Kd) (as a rule, the constant that tells how readily two partners part at equilibrium) was 0.576 nM.

The record behind these values is PMC9822811.
